Experimental data published in US20240132578A1.

Experiments:
[1] = molecular target: HIV-1 92RW020 Env (HIV-1); experiment: cell-based or functional assay
[2] = molecular target: HIV-1 JR-CSF Env I420A (HIV-1 (isolate JR-CSF)) (UniProt P20871); experiment: cell-based or functional assay
[3] = molecular target: HIV-1 Env of isolate MGRM-AE-004 (pseudovirus) (HIV-1); experiment: cell-based or functional assay
[4] = molecular target: HIV-1 Env of isolate MGRM-AE-005 (pseudovirus) (HIV-1); experiment: cell-based or functional assay
[5] = molecular target: HIV-1 Env of isolate MGRM-AE-006 (pseudovirus) (HIV-1); experiment: cell-based or functional assay
[6] = molecular target: HIV-1 envelope glycoprotein (Env) of isolate MG RM-A-003, subtype A (HIV-1); experiment: cell-based or functional assay
[7] = molecular target: HIV-1 envelope glycoprotein (Env) of isolate 92WR021, subtype A (HIV-1); experiment: cell-based or functional assay
[8] = molecular target: WT JR-FL gp120 (HIV-1 JR-FL); experiment: ELISA, antigen-coated wells, mAb titrated; EC50 by nonlinear regression
[9] = molecular target: HIV-1 Env of isolate MGRM-A-012 (clade A pseudovirus) (HIV-1); experiment: cell-based or functional assay
[10] = molecular target: HIV-1 Env of isolate SF162 (HIV-1) (UniProt P19550); experiment: cell-based or functional assay
[11] = molecular target: HIV-1 Env of isolate 94KE105 (listed under clade A; pseudovirus) (HIV-1); experiment: cell-based or functional assay
[12] = molecular target: HIV-1 Env of isolate MGRM-D-005 (clade D pseudovirus) (HIV-1); experiment: cell-based or functional assay
[13] = molecular target: HIV-1 Env of pseudovirus MGRM-G-017 (HIV-1); experiment: cell-based or functional assay
[14] = molecular target: HIV-1 Env of isolate MGRM-Chronic-B-024 (HIV-1); experiment: cell-based or functional assay
[15] = molecular target: HIV-1 Env of isolate VLGCB3 (HIV-1); experiment: cell-based or functional assay
[16] = molecular target: HIV-1 Env of isolate 97ZA012 (HIV-1); experiment: cell-based or functional assay
[17] = molecular target: HIV-1 Env of isolate SC422661.8 (HIV-1); experiment: cell-based or functional assay
[18] = molecular target: HIV-1 Env of isolate THR0.18 (HIV-1); experiment: cell-based or functional assay
[19] = molecular target: HIV-1 Env of isolate 93IN905 (HIV-1); experiment: cell-based or functional assay
[20] = molecular target: HIV-1 Env of isolate TRO.11 (HIV-1); experiment: cell-based or functional assay
[21] = molecular target: HIV-1 Env of isolate 93MW959 (HIV-1); experiment: cell-based or functional assay
[22] = molecular target: HIV-1 Env of isolate NL43 (HIV-1); experiment: cell-based or functional assay
[23] = molecular target: HIV-1 Env of isolate TRJ04551.58 (HIV-1); experiment: cell-based or functional assay
[24] = molecular target: HIV-1 Env of isolate QH0692.42 (HIV-1); experiment: cell-based or functional assay
[25] = molecular target: HIV-1 Env of isolate PVO.4 (HIV-1); experiment: cell-based or functional assay
[26] = molecular target: HIV-1 Env of isolate 98IN022 (HIV-1); experiment: cell-based or functional assay

Sequence of 1443_C16 (PG16) (TCN-116) (antibody) (VH): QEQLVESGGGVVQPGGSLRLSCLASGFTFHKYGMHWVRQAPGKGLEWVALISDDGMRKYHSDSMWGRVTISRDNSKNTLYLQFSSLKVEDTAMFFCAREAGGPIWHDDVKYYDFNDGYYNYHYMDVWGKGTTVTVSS
Sequence of 1443_C16 (PG16) (TCN-116) (antibody) (VL): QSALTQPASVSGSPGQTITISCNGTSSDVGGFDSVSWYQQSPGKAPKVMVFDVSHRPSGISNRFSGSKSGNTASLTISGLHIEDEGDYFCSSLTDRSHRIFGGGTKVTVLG

| Substance | IC50, pseudovirus neutralization [1] | Fold IC50 increase relative to wild-type (pseudovirus neutralization) [2] | IC50 (µg/mL), pseudovirus neutralization [3] | IC50 (µg/mL), pseudovirus neutralization [4] | IC50 (µg/mL), pseudovirus neutralization [5] | IC50, pseudovirus neutralization [6] | IC50, pseudovirus neutralization [7] | EC50 [8] | IC50 (µg/ml), pseudovirus neutralization [9] | IC50 (µg/ml), pseudovirus neutralization [10] | IC50 (µg/ml), pseudovirus neutralization [11] | IC50, pseudovirus neutralization [12] | IC50 (µg/ml), pseudovirus neutralization [13] | also measured |
| --- | --- | --- | --- | --- | --- | --- | --- | --- | --- | --- | --- | --- | --- | --- |
| 5123_A06 (PGT-125) (antibody) | 0.0028 µg/mL | 1.1 fold | > 50 µg/mL | 0.01 µg/mL | 0.009 µg/mL | > 50 µg/mL | 0.005 µg/mL | 0.2 µg/mL |  |  |  |  |  |  |
| 4E10 (antibody) |  |  |  |  |  |  |  |  | 4.27 µg/mL | 4.28 µg/mL | 7.63 µg/mL | 35.2 µg/mL | 1.14 µg/mL |  |
| 2G12 (antibody) |  |  |  |  |  |  |  |  | > 50 µg/mL | 1.67 µg/mL | 7.22 µg/mL | 25.7 µg/mL | > 50 µg/mL |  |
| 1443_C16 (PG16) (TCN-116) (antibody) |  |  |  |  |  |  |  |  | 20.7 µg/mL | > 50 µg/mL | 6.13 µg/mL | 19.7 µg/mL | 0.02 µg/mL |  |
| 4858_P08 (PGT-123) (antibody) | 0.0038 µg/mL | 3.2 fold | > 50 µg/mL | > 50 µg/mL | > 50 µg/mL | 0.495 µg/mL | 0.005 µg/mL | 0.2 µg/mL |  |  |  |  |  |  |
| PGV04 (antibody) |  |  | 0.183 µg/mL | 0.051 µg/mL | > 50 µg/mL |  |  |  |  |  |  |  |  | IC50 (µg/mL), pseudovirus neutralization [14]: 2.52 µg/mL; IC50 (µg/mL), pseudovirus neutralization [15]: 0.045 µg/mL; IC50 (µg/mL), pseudovirus neutralization [16]: 0.041 µg/mL; IC50 (µg/mL), pseudovirus neutralization [17]: 0.11 µg/mL; IC50 (µg/mL), pseudovirus neutralization [18]: > 50 µg/mL; IC50 (µg/mL), pseudovirus neutralization [19]: 0.332 µg/mL; IC50 (µg/mL), pseudovirus neutralization [20]: 0.121 µg/mL; IC50 (µg/mL), pseudovirus neutralization [21]: > 50 µg/mL; IC50 (µg/mL), pseudovirus neutralization [22]: 0.028 µg/mL; IC50 (µg/mL), pseudovirus neutralization [23]: 0.028 µg/mL; IC50 (µg/mL), pseudovirus neutralization [24]: 1.9 µg/mL; IC50 (µg/mL), pseudovirus neutralization [25]: 0.454 µg/mL; IC50 (µg/mL), pseudovirus neutralization [26]: 5.69 µg/mL |
| 5145_B14 (PGT-127) (antibody) |  | 1.8 fold | > 50 µg/mL | > 50 µg/mL | > 50 µg/mL | > 50 µg/mL | 0.011 µg/mL | 0.1 µg/mL |  |  |  |  |  |  |
| 1496_C09 (PG9) (TCN-109) (antibody) | 0.161 µg/mL |  | 0.009 µg/mL | 0.282 µg/mL | 0.063 µg/mL |  |  |  | 11.2 µg/mL |  | 29.6 µg/mL | 0.59 µg/mL | 0.03 µg/mL | IC50 (µg/mL), pseudovirus neutralization [14]: 0.222 µg/mL; IC50 (µg/mL), pseudovirus neutralization [15]: 0.022 µg/mL; IC50 (µg/mL), pseudovirus neutralization [16]: 3.4 µg/mL; IC50 (µg/mL), pseudovirus neutralization [17]: 1.48 µg/mL; IC50 (µg/mL), pseudovirus neutralization [18]: 26.4 µg/mL; IC50 (µg/mL), pseudovirus neutralization [19]: 0.035 µg/mL; IC50 (µg/mL), pseudovirus neutralization [20]: 16.9 µg/mL; IC50 (µg/mL), pseudovirus neutralization [21]: 0.054 µg/mL; IC50 (µg/mL), pseudovirus neutralization [23]: 0.858 µg/mL; IC50 (µg/mL), pseudovirus neutralization [25]: 24.8 µg/mL; IC50 (µg/mL), pseudovirus neutralization [26]: 0.003 µg/mL |
